# Test results taken from the supplement of paper PMC9170038.
# Test system: MS2 coat protein
# Test: apparent KD of MS2 coat protein; designed switch direction (-1 OFF switch, 1 ON switch): 1; higher = weaker reporter binding
# Method in brief: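 The buffer was Tris-HCl pH 7.5 with KCl, MgCl2, BSA, DTT, tRNA and Tween-20. In it, SNAP-549-labelled MS2 coat protein was titrated in doubling steps from 0.7 or 1.5 nM to 3 µM over chip-bound RNA switches transcribed by stalled E. coli RNA polymerase on Illumina chips. Apparent KD is the per-design median over clusters of curve fits to normalised fluorescence.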
# [1] = Eterna round: R95, input ligand: FMN 200 uM
# [2] = Eterna round: R95, input ligand: microRNA oligo, concentration not stated
# [3] = Eterna round: R95, input ligand: none
# [4] = input ligand: microRNA oligo, concentration not stated
Sequence,apparent KD of MS2 coat protein [1] [µM],apparent KD of MS2 coat protein [2] [µM],apparent KD of MS2 coat protein [3] [µM],apparent KD of MS2 coat protein (input ligand: FMN 200 uM) [µM],apparent KD of MS2 coat protein [4] [µM],apparent KD of MS2 coat protein (input ligand: none) [µM]
ACGCAGCUGGGUGAGGAUAUUGGUGGUACAACAUGAGGAUCACCCAUGUCCGAAGCUCGGACCUCCGAGAAGGCGCCCGGCUGCG [Soinraesar Omei Mod 4] (puzzle: Same State 2),0.0397,0.269,0.912,,,
"UUAUUAAUUACAUGAGGAUCACCCAUGUUUUUAUGUCAGAGACAGGAUAUAGAAGUCUCGUUUUACUAGAAGGGUCAUUAUAAG [JR_SSNG3_Sub015] (Eterna round: R96, puzzle: Same State NG 3)",,,,0.0186,0.0164,0.0192
"GUGGUCAGACAUGAGGAUCACCCAUGUGGAAUAAAUAACACACAGGAUAUCUAAUAUAAAAUAUAAGAGAAGGGUGGAUUGGUG (Eterna round: R96, puzzle: Same State NG 3)",,,,,0.202,
"GUAGCAUACCGAGGAUAUUCAUAUUAUACAUGAGGAUCACCCAUGUAAGGCCGAUUACGGCCUUGGGAGAAGGCGGAAUGCUAC [Xeonanis - 20 Mod21] (Eterna round: R96, puzzle: Same State NG 2)",,,,0.0189,0.0682,0.105
UGAGCCGGCACUGAGGAUAUUCAUAUUUAAACAUGAGGAUCACCCAUGUAGGCCAGAAGGCCUUGGGAGAAGGCAGGUCGGCUCU [salish99_ss2_r3_078] (puzzle: Same State 2),,0.258,,,,
AUAAAACAUGAGGAUCACCCAUGUCAACAAAGUCGAGGAUAUGGGCAAAUAAAAGAAUAACCAGAAGGCGAAUAAU [salish99_ss1_r3_053] (puzzle: Same State 1),0.046,0.283,0.481,,,
CGUAGGUAGCUGGAGGAUAUCUGAGUGGUAACAUGAGGAUCACCCAUGUGAUGUGAGGAACAUGAGGAGAAGGCUAGCUGCCUGC [JL-ss2-3.13 JL mod] (puzzle: Same State 2),0.0214,0.0422,0.0435,,,
"GCUAGGAAUUAAGCCAACAUGAGGAUCACCCAUGUAUGUUGGUAGGAUAUCGUUUGCUUUGCAAACGAGAAGGGCUAACCUAGC [JL SSNG3 1.25] (Eterna round: R96, puzzle: Same State NG 3)",,,,0.051,0.0504,0.0581
"AGGCUCAGACGAGGAUAUGGUCAUGGCGCUUCGGCGCAUACAUGAGGAUCACCCAUGUAGGGUGAUCAGAAGGCGUCUGAGCCA [SSNG2/9-A1] (Eterna round: R96, puzzle: Same State NG 2)",,,,0.0768,0.255,0.365
"UUCUCUCUGGUAGGAUAUGUAGGAUAUGUACAUGAGGAUCACCCAUGUCAGUUAAUGACAGAAGGAUAGAAGGACCAGAUCUCU [pwkr ssNG2 2FMN 1F5s.2] (Eterna round: R96, puzzle: Same State NG 2)",,,,0.115,0.0724,0.127
"GGUCCAGCCUGAGCUGGACAAAAGCAUGUACAUGAGGAUCACCCAUGUUAUGUACAAGCUUUUUGCUCGUCUUAAAA [JL mod - D87 - 10] (Eterna round: R96, puzzle: Sensor for hsa-mir-208a)",,,,0.183,0.0122,0.188
"AAUAUAUUAAGUGAGGAUAUCAUAGAAAAAACAUGAGGAUCACCCAUGUGGGAAACCUGGUCGGGUGAGAAGGCACUUAAUAUAU [Samwise Clockwise 29 - Jieux - Same State 2] (Eterna round: R96, puzzle: Same State 2)",,,,0.0852,0.823,1.28
"GUUACAUGAGGAUCACCCAUGUAUGUGUGGGAGUAAGUGUCUUAGGAUAUCUAUGAUUUAAGUUAAGAGAAGGAAGAUUGUUGU [JMF's solution 80] (Eterna round: R96, puzzle: Same State NG 3)",,,,0.118,0.0895,0.114
"GAGUCAGAUCGAGGAUAUUUGUUAUGACGAUCCCACAUGAGGAUCACCCAUGUCCACGAUCCUCCAAAGAAGGUGAGGCUGGCG [Eternabot solution 32] (Eterna round: R96, puzzle: Same State NG 2)",,,,0.202,0.0396,0.0882
"UGAACCUUCACAGGAUAUCAUGCGAAAAUUGCGUGAGAAGGGUGGAUGUGGCGUUCAUAGUUGCACAUGAGGAUCACCCAUGUA [SameState NG1 #50] (Eterna round: R96, puzzle: Same State NG 1)",,,,0.257,0.212,0.134
CUCAAACAUGAGGAUCACCCAUGUGUUGUCAUGGGAGGAUAUCCAAGUUCGUUGUAGUCGGGAGAAGGCCUAUGUC [× ×•×ª×• ×ž×“×™× ×” × ×—×ª-12] (puzzle: Same State 1),,0.139,,,,

Sequence,apparent KD of MS2 coat protein [1] [µM],apparent KD of MS2 coat protein [2] [µM],apparent KD of MS2 coat protein [3] [µM],apparent KD of MS2 coat protein (input ligand: FMN 200 uM) [µM],apparent KD of MS2 coat protein [4] [µM],apparent KD of MS2 coat protein (input ligand: none) [µM]
AGUGCAGCCUGAGCUGCACAAAAGCAUGUACAUGAGGAUCACCCAUGUCAUGUACAAGCUUUUUGCUCGUCUUAAAA [Mat - hsa-mir-208a - Mod of JL - D20] (puzzle: Sensor for hsa-mir-208a),0.529,0.0154,0.688,,,
"GUAGCAUACCGAGGAUAUUCAUAUAAUAAAUAACAUGAGGAUCACCCAUGUUGGCGAAAGCCUUGGGAGAAGGCGGAAUGCUAC [Xeonanis - 20 Mod56] (Eterna round: R96, puzzle: Same State NG 2)",,,,0.0135,0.0458,0.0555
"CCAUAACAGUGAGGAUAUUGUUGCGAUAAGUGACGAGAAGGCAUUUAUGUGAAAUAAACAUACAUGAGGAUCACCCAUGUUGUA [Omei SS(NG)1 Bv4] (Eterna round: R96, puzzle: Same State NG 1)",,,,0.0173,0.0167,0.0223
"CUUUAUCACUAUACAUGAGGAUCACCCAUGUUAUCAUCAUGAGAGGAUAUCGUAAUAGGAUUUUUCGAGAAGGCUCUAAAGUAU [JR_SSNG3_Sub078] (Eterna round: R96, puzzle: Same State NG 3)",,,,0.0521,0.167,0.142
"GCCAACAUGAGGAUCACCCAUGUCCGGAAGUGAAUUCAAAGUGAGGAUAUGGAGAGACCGAAAAUCCAGAAGGCACGCACAUGC [Eternabot solution 10] (Eterna round: R96, puzzle: Same State NG 3)",,,,1.5,0.475,1.26
"CCGUAAAAUGGAGGAUAUGGAGCCUUAUUGGCUCCAGAAGGUCAUAAAACAUGAGGAUCACCCAUGUCGGCGGUCAAUAGACCG [Eli NG1ss - 78] (Eterna round: R96, puzzle: Same State NG 1)",,,,,0.0315,
"GAGUUACAUGAGGAUCACCCAUGUUGUUUUGGAUAAGGAUAUAUGGUAGGAAGAGGAAUGAUAGAAGGUAUUAGGG [JR_SS1_Sub063] (Eterna round: R96, puzzle: Same State 1)",,,,0.0416,0.0268,0.0353
GGAGAGAGAGCACAGGAUAUUAGAGGAGAGACAUGAGGAUCACCCAUGUAAGAGAGAGAGGAGAGUGAGAAGGGUGAGAGAGAGG [Altered State 2-19 - Jieux - Same State 2] (puzzle: Same State 2),0.241,0.0829,0.213,,,
"GUUACAUGAGGAUCACCCAUGUAUGUGUGGGAGUAAGUGUCUUAGGAUAUCUAGUAUUUGAUUUAAGAGAAGGAAGAUUGUUGU [JMF's solution 60] (Eterna round: R96, puzzle: Same State NG 3)",,,,0.121,0.0754,0.11
"GUUGAAUUGCAAGGAUAUCUUAGUCAGACGCUAAGAGAAGGUGCUUUACAGUUACAUGAGGAUCACCCAUGUCUUUCUUUUGAU [Jens NG1-01] (Eterna round: R96, puzzle: Same State NG 1)",,,,0.0234,0.0202,0.0285
"CGCCAAUUGGCACAGGAUAUGAGCAUGCUCACAUGAGGAUCACCCAUGUGAUUACCAACGCAAAAUCAGAAGGGUGCCCUCGUCA [Beanza] (Eterna round: R96, puzzle: Same State 2)",,,,0.0806,0.0991,0.164
"GGAUGAUAGACAGGAUAUUGAUUGUAAUUUUGUCAAGAAGGGUCUUUGAUUUAAACGACCAGUUACAUGAGGAUCACCCAUGUU [JR_SSNG1_Sub030] (Eterna round: R96, puzzle: Same State NG 1)",,,,0.0201,0.0276,0.0303
AACAAUCUAUCUGAGGAUAUCAUGAAAUAAACAUGAGGAUCACCCAUGUGCAGGAAAACUGCAUAUGAGAAGGCAGAUAGAUUGA [salish99_ss2_r3_x] (puzzle: Same State 2),0.0495,0.605,1.06,,,
UCAAGCGAGAGGCUCGUCUUAUGUAAGGUACAUGAGGAUCACCCAUGUGAGGGACGAUUGAGUUAGAUGGAAUGGAG [JR_SHM208A_Sub033] (puzzle: Sensor for hsa-mir-208a),0.0423,0.121,0.0509,,,
CAGCGCUGUUGAGAGGAUAUGCGGUGAUGGACAUGAGGAUCACCCAUGUUAGCGAUAGCAUUACGGUAGAAGGCUCUACAGCUGC [Soteed Omei mod 3] (puzzle: Same State 2),,0.014,,,,
